Reference: the supplement of paper PMC12764529
± gives the half width of the 95% confidence interval.

What was measured:
[1] = folding stability dG unfold (combined trypsin and chymotrypsin); higher = more stable
Method in brief: (§1)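 How resistant each design was to proteolysis was captured as K50, inferred by Bayesian fitting of sequencing counts. Unfolding free energy was then derived relative to a sequence-predicted unfolded-state K50 and a shared folded-state K50, per protease or combined. Digestion used trypsin and chymotrypsin at 11 threefold-diluted concentrations plus a no-protease condition, on mini-proteins under 80 residues without cysteine in a PA-tagged cDNA display construct. Designs were kept only when AlphaFold2 dimer inter-PAE was above 15.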

[2] = folding stability dG unfold from trypsin proteolysis; higher = more stable
Method in brief: as §1

[3] = folding stability dG unfold from chymotrypsin proteolysis; higher = more stable
Method in brief: as §1

| Sequence | folding stability dG unfold [1] [kcal/mol] | folding stability dG unfold [2] [kcal/mol] | folding stability dG unfold [3] [kcal/mol] |
| --- | --- | --- | --- |
| SAGGSKKVPIKVKIEVYNKNGEKMTLEELLKKLEENAKVEKDEKGRLTLYIVNKKTNKIVKIEVEKSAGGSA [r2_234_TrROS_Hall] | 1.72 ± 0.27 | 1.74 ± 0.18 | 1.92 ± 0.19 |
| SAGGSKLTVEEIKKLFPNVEVTKKEDGTYEMRVTVEVTLPNGEKKKVEVTVKVEVKDGKIVKVEVTSAGGSA [r2_104_TrROS_Hall] | 2.9 ± 0.12 | 2.44 ± 0.15 | 3.17 ± 0.092 |
| SAGGSKMEPGPVKIKVTDGGEEHTFDFQVSVMPDPDGRPMIMFSFPDGNPLSIPLDDAEKITDIEVSAGGSA [r2_297_TrROS] | 0.106 ± 0.18 | 0.322 ± 0.11 | -0.141 ± 0.29 |
| SAGGSKPIRVEIAVPPDVPLEELARRVEEELRELGFEVEVEEVSFLPEEGRVLLRFRDGAVAVIPNSAGGSA [r2_242_TrMRF] | 1.86 ± 0.068 | 1.8 ± 0.022 | 1.85 ± 0.062 |
| SAGGSKPTVTLELYIEVPEEELSEEEIKKLLEELAKELNLEVEVTVEVEEKDGKLIVKVTVTIKKPSAGGSA [r2_172_TrROS_Hall] | 2.25 ± 0.25 | 2.15 ± 0.19 | 2.28 ± 0.14 |
| SAGGSKPVYKVKIEIEFNGKKIEIEIEAETEEEAKKAVEELLKKLFEENKDNLKIKVEVEKLPEKPSAGGSA [r2_111_TrROS_Hall] | 3.11 ± 0.12 | 2.95 ± 0.15 | 3.15 ± 0.2 |
| SAGGSKSKIISASVFTTPDGEKVGVIKVLVKDPNGNPHLVIATIYSDGKIKVSVYYNGKVYTFEFDSAGGSA [r2_182_TrMRF] | 3.52 ± 0.12 | 2.41 ± 0.079 | 3.95 ± 0.037 |
| SAGGSKTIVIDPEKVVKVEVKKNENGEKEIRIVVKNKDGEEKEVTIKPGEKLELPPKVEVVVLPEKSAGGSA [r2_347_TrROS_Hall] | 0.965 ± 0.19 | -0.517 ± 0.28 | 1.39 ± 0.18 |
| SAGGSKTLIIKIEKIEEFYPPFNNDKIKIPVSVYDPETGEKVLSNEEVAKILEKLFPGIKIGWEEGSAGGSA [r2_27_TrMRF] | 0.937 ± 0.06 | 1.06 ± 0.032 | 0.719 ± 0.036 |
| SAGGSLDVKIEITPPDGSTRTLDIEVESEEEAIKIAEELQKELGEGNTLKVRITYPGPKSPVELELKSAGGS [r8_107_JUSTAS] | 2.2 ± 0.065 | 1.53 ± 0.04 | 2.51 ± 0.046 |
| SAGGSLEEVARALARELGLPDVEVRDIPVEVLPNGTVRIPVTIVRPEAGEPLPPLEVELAPDEPLLSAGGSA [r2_137_JUSTAS] | -0.198 ± 0.14 | -0.0103 ± 0.14 | -0.236 ± 0.15 |
| SAGGSLKIRTVLRLPSPDGTPYLVFSKEAVIHPVPNIVHINLLVPDKEITLTVPLNEVELLGSPEEVLSSAG [r5_15_TrMRF] | 2.65 ± 0.097 | 2.13 ± 0.048 | 2.81 ± 0.029 |
| SAGGSLRGVLFDPEGGRVYVLEYDPALGSFRVRPFPVPPVLPISREAAAEILRRELGLPREVVERLLASAGG [r13_824_TrMRF] | 3.15 ± 0.093 | 2.58 ± 0.082 | 3.438 ± 0.033 |
| SAGGSMADPGKAKAKVVIGGVEFEFDTTVTVADDPDGRKVLIFTFPDGTPVEIPLEDAEKILEVEGSAGGSA [r2_297_TrMRF] | 1.43 ± 0.067 | 0.996 ± 0.024 | 1.66 ± 0.03 |
| SAGGSMELKPGDSIEFPENIPLDEIIELAKKIAEEFNFEGIEDIENPSEGFYRIRAITPDGRPIEISAGGSA [r2_168_TrMRF] | 0.0617 ± 0.18 | -0.147 ± 0.23 | 0.141 ± 0.18 |
| SAGGSMELYTKSPDGKLFKVKIVNPGNAKDKVLFEAEVFDPKNNKPIGRFTGVVDPKTGKIISIKPSAGGSA [r2_324_TrMRF] | 1.64 ± 0.13 | 1.6 ± 0.035 | 1.68 ± 0.083 |

| Sequence | folding stability dG unfold [1] [kcal/mol] | folding stability dG unfold [2] [kcal/mol] | folding stability dG unfold [3] [kcal/mol] |
| --- | --- | --- | --- |
| SAGGSMEVEEFETTDPATGKPYRLRFTYDSETGIPVLEVFAPDGTPLATVPVEPGEAEAARERLGASAGGSA [r2_115_JUSTAS] | 0.767 ± 0.058 | 0.0239 ± 0.063 | 1.14 ± 0.085 |
| SAGGSMEVKVVSYDEEKGVLVIEVDEDETVEELVERLRSIPGLKVEVEVVEKDGKLYVVIRVEKKESAGGSA [r2_44_TrROS_Hall] | 3.98 ± 0.18 | 3.17 ± 0.13 | 4.27 ± 0.09 |
| SAGGSMEVVVTFPDGSKEVIPEEPLKKLAEELGIPWDEEDPEAQWEAIARALAEKTGKPVEKVEIASAGGSA [r2_83_TrMRF] | 2.09 ± 0.093 | 1.97 ± 0.072 | 2.24 ± 0.17 |
| SAGGSMFKVEEVETLENGEVLAKLTVYLDGKPYPATARIYTLPDGRKVAEIYFPDNPNVSLRIPLTSAGGSA [r2_376_TrMRF] | 4.1 ± 0.053 | 3.91 ± 0.059 | 4.14 ± 0.024 |
| SAGGSMKFSATVEYDPANNIYTVTVPITRKDTGEVIPVSVPVPGSDLTTAEQLAEEIAEKLEKEGLSAGGSA [r2_221_JUSTAS] | 0.621 ± 0.19 | 0.627 ± 0.092 | 0.518 ± 0.14 |
| SAGGSMKITVTVSYSELKEKYPDLTEEELKELAEEIAKEKKKEIIEGNPDISENTEIEVKIEKPAVIESAGG [r13_634_JUSTAS] | 1.84 ± 0.12 | 0.76 ± 0.11 | 2.27 ± 0.052 |
| SAGGSMKVFVFEVKVEVEVKLDKDGNLTVEIKKVEVKPVKKIPLSEEELEKLREAKKKGLTLEEILSAGGSA [r2_327_TrROS_Hall] | 2.78 ± 0.18 | 2.07 ± 0.11 | 3.26 ± 0.1 |
| SAGGSMKVYEFKSLEEIKKAIENLPPNEKYIVIKKNKNGKLEIIIVSKEEEEELKKKGVDFIIKVKSAGGSA [r2_351_TrROS_Hall] | 1.95 ± 0.43 | 0.788 ± 0.089 | 2.21 ± 0.07 |
| SAGGSMLEKEEGDTLVKTVLQPVPEDLSREVLVTTTTKLLPNGSEVTVTVRSPFTGEPLSSSVVLSSAGGSA [r2_412_JUSTAS] | 0.602 ± 0.066 | 0.458 ± 0.054 | 0.635 ± 0.13 |
| SAGGSMLSTEPKETDDEIKVTKIYYPEEPIEVTLTTDPDTDLVTATSPSSTATIDAKTGKTTTTPSSSSAGG [r13_416_JUSTAS] | 0.545 ± 0.14 | -0.285 ± 0.1 | 0.876 ± 0.039 |
| SAGGSMMKVTIVDKDGKERVFTFPKDMTEEEVLERIKKELEAEGVEVEEVEVERREDGSLVIRVKKSAGGSA [r2_148_TrROS_Hall] | 3.93 ± 0.14 | 4.16 ± 0.4 | 3.71 ± 0.064 |
| SAGGSMPFRPLDVKVTVERLPDGTIRITTTLRQPDSPAAVTTEVKEVPLAELVKKRGRPVTAEDLLSAGGSA [r2_180_JUSTAS] | 0.858 ± 0.19 | 0.132 ± 0.12 | 1.21 ± 0.096 |
| SAGGSMPPETEVTVTVEEFEEDPSRRLRVTITTPDGTVVTTDLENPGELSPEEEARIAALAAALAASAGGSA [r2_17_JUSTAS] | 1.58 ± 0.055 | 0.486 ± 0.026 | 1.96 ± 0.027 |
| SAGGSMPVEIKLLEEEVLPDGVTIKKVKAEDGSEMTVTVTKLPGNTYKVTITNPANGTTSTFTLPESAGGSA [r2_361_JUSTAS] | 1.45 ± 0.077 | 0.932 ± 0.035 | 1.73 ± 0.055 |
| SAGGSMRITKIEIEPNPNGDYKITITMTENGHITVEVMNPNGKPKEVEVNMPNGDPEEVVKEAIKASAGGSA [r2_298_TrROS] | 1.63 ± 0.083 | 0.686 ± 0.041 | 2.25 ± 0.1 |
